Columns and labels:
Assay type in all cases: cell-based
[1] = system: BMP responsive element BRE (Smad1/5/8); assay: BMP responsive element BRE luciferase reporter in NIH-3T3 cells (negative control); details: TGF-β3 over-expression
From the text: (§1) NIH-3T3 cells were transfected with plasmids containing TGF-β responsive elements driving luciferase expression. These cells were then transduced with a retroviral vector expressing TGF-β3. The SBE4 responsive element is specific to TGF-β activation via smad2/3 mediated transcriptional activation. This Smad activation can be further delineated to Smad2 specific transcriptional activation using the ARE responsive element in conjunction with the xenopus Fast-1 transactivator (ARE alone is only Smad2/3 specific). The BMP-specific responsive element activates through Smad1/5/8 activation and should not be responsive to TGF-β3 activity. […] The experiment was conducted as follows:
(§2) NIH-3T3 cells pre-plated at 1×10^6 cells/well and transfected with 10 μg of reporter plasmid by standard Calcium Phosphate precipitation. After 48 hours cells were transduced with either rKat.TGF-β3 or a control rKat.cmvGFP retrovirus. […] After 48 hours luciferase expression was measured in cell lysates. […] Relative luciferase activity was expressed in arbitrary units with respect to total protein measured by standard Bradford assay as by manufacturer's instructions (BioRad, Herts, UK).

Smad7 promoter = Smad7 promoter luciferase reporter in NIH-3T3 cells; details: TGF-β3 over-expression
From the text: as §1, §2

[2] = system: ARE responsive element with xenopus Fast-1 transactivator (Smad2 specific); assay: ARE/Fast-1 responsive element luciferase reporter in NIH-3T3 cells; details: TGF-β3 over-expression
From the text: as §1, §2

[3] = system: SBE4 responsive element (smad2/3 mediated transcriptional activation); assay: SBE4 responsive element luciferase reporter in NIH-3T3 cells; details: transgenic TGF-β3 over-expression vs control GFP retrovirus, 48 hours
From the text: as §1, §2

[4] = system: ARE responsive element (Smad2/3 specific); assay: ARE responsive element luciferase reporter in NIH-3T3 cells; details: TGF-β3 over-expression
From the text: as §1, §2

[5] = system: MDF-CAGA(12)-Luc cells (Smad2/3 specific transcriptional activation); assay: CAGA(12)-Luc reporter in primary murine dermal fibroblasts; details: conditioned medium from TGF-β3 over expressing cells vs GFP control
Protocol: A cell line transgenic for a synthetic TGF-β responsive element driving the firefly luciferase gene was generated from primary mouse dermal fibroblasts. The CAGA(12) Smad Binding Element (SBE) was placed upstream of a minimal promoter and will respond to Smad2/3 specific transcriptional activation. Primary murine dermal fibroblasts (MDF) were transduced with a lentiviral vector containing the CAGA(12)-Luc element. These cells were then incubated in conditioned medium from MDFs transduced with a lentivector expressing either TGF-β3 or GFP. The experiment was carried out as follows:
Murine dermal fibroblasts (MDF) were isolated as previously described by DiPersio et al. (DiPersio, C. M., S. Shah, and R. O. Hynes. 1995. alpha 3A beta 1 integrin localizes to focal contacts in response to diverse extracellular matrix proteins. J Cell Sci 108 (Pt 6):2321-36) and expanded to ˜60% confluence and transduced with a lentivector expressing a luciferase reporter gene under the control of either a smad 2/3-specific CAGA(12) promoter. Lentiviral preps were generated as described in Example 1. […] Relative luciferase activity was expressed in arbitrary units with respect to total protein measured by standard Bradford assay as by manufacturer's instructions (BioRad, Herts, UK).

[6] = system: 293T cells transduced with Lenti/CAGA(12)-Luc; assay: Lenti/CAGA(12)-Luc reporter in 293T cells with or without human αvβ3 integrins; details: conditioned medium from cells over-expressing TGF-β3
From the text: Human embryonic kidney 293T cells stably expressing the human αvβ3 integrins and control 293T cells were transduced with the Lenti/CAGA(12)-Luc vector to generate two transgenic lines. Again, these cells were subjected to conditioned medium from cells either over-expressing TGF-β3 or control cells. In more detail:
Human 293T cells stably transfected with αv and β3 integrin (293Tab) along with 293T controls were a kind gift from Dr. John Olsen, UNC, USA. 293T cells and 293Tabs were transduced with Lenti-CAGA(12)-Luc and human DFs were tranduced with lentivirus either expressing human TGF-β3iresGFP, mutant TGF-β3iresGFP or a GFP control. Cells were cultured for a further 48 hours prior to trypsinisation and mixing of 293 cells and transduced DFs in a 1:1 ratio. Cells were incubated for a further 24 hours in serum containing medium then incubated for 48 hours in serum depleted medium supplemented with ITS+1 (Sigma-Aldrich). Cells were subsequently either FACS analysed, to assess the ratio of 293T cells to DFs, or lysed for the purpose of quantifying the luciferase expression.

B1: TGF-β3: TGF-β3 over-expressed from a retroviral/lentiviral vector; cells exposed by transduction or conditioned medium (protein, UniProt P10600 301-412, looked up)
Transforming growth factor …: ALDTNYCFRNLEENCCVRPLYIDFRQDLGWKWVHEPKGYYANFCSGPCPYLRSADTTHSTVLGLYNTLNPEASASPCCVPQDLEPLTILYYVGRTPKVEQLSNMVVKSCKCS
[1]
  luciferase response of BRE element over controls: did not show a significant response over controls
Smad7 promoter
  luciferase response of Smad7 promoter over controls: significant responses over controls
[2]
  luciferase response of ARE/Fast-1 element over controls: significant responses over controls
[3]
  upregulation of SBE4 element over controls (luciferase): ~1000 fold
[4]
  luciferase response of ARE element over controls: significant responses over controls
[5]
  luciferase response compared to control: significant luciferase response
[6]
  luciferase output in αvβ3 expressing cell lines compared to control 293T cells: significantly enhanced

— US20100175139A1, “SOMATO[…]” (priority 2007, published 2010)
